These results are taken from publication PMC4351158 (Structure (London, England : 1993), 2015).

Test in all cases: fluorescence polarisation
For experiment [1], the target named is T1, DegS D221A (E. coli, UniProt P0AEE3 27-355, D221A).
T1 sequence (looked up): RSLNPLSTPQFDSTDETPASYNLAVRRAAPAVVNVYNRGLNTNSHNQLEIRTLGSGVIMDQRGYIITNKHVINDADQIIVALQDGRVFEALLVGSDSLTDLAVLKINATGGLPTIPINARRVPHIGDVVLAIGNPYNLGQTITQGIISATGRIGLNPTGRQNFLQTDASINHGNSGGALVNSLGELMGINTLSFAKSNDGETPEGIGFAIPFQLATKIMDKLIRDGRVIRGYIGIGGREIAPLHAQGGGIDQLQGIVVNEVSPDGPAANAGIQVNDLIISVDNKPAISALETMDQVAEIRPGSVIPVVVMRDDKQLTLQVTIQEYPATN

In experiment [2] the target is T2, DegS T167V/H198P (E. coli, UniProt P0AEE3 27-355, T167V | H198P).
T2 sequence (looked up): T1 sequence (looked up) with T141V, H172P, A195D

Experiment [3] addresses T3, DegS Q187A/H198P (E. coli, UniProt P0AEE3 27-355, Q187A | H198P).
T3 sequence (looked up): T1 sequence (looked up) with Q161A, H172P, A195D

Experiment [4] concerns the target T4, DegS F220A/H198P (E. coli, UniProt P0AEE3 27-355, F220A | H198P).
T4 sequence (looked up): T1 sequence (looked up) with H172P, F194A, A195D

Experiment [5] deals with T5, DegS I179A (E. coli, UniProt P0AEE3 27-355, I179A).
T5 sequence (looked up): T1 sequence (looked up) with I153A, A195D

Substitutions are numbered along the chain they refer to. Where no end group is shown, it is not given here. fluorescein = fluorescein, a fluorescent label on the peptide N-terminus

The Kd is the equilibrium constant for the complex coming apart.

B1: fluorescent OMP peptide fluorescein-DNRDGNVYYF (peptide)
peptide: fluorescein-DNRDGNVYYF
For B1, the Kd in experiment [1] is 3.2 ± 0.2 µM; in experiment [2], 1.9 ± 0.7 µM; in experiment [3], 1.5 ± 0.1 µM; in experiment [4], 1.6 ± 0.1 µM; in experiment [5], 2.3 ± 0.4 µM.
